Measured values published in the supplement of paper PMC7877785.
± gives the uncertainty stated by the source.

Experiment: self-splicing fitness, log relative to wild type (ln ratio); higher = more splicing; Tetrahymena group I intron in knt gene, E. coli kanamycin selection, DiMSum; sequences stand for … in CUCUCU…GGAGGGAAAAGUUAUCAGGCAUGCACCUGGUAGCUAGUCUUUAAACCAAUAGAUUGCAUCGGUUUAAAAGGCAAGACCGUCAAAUUGCGGGAAAGGGGUCAACAGCCGUUCAGUACCAAGUCUCAGGGGAAACUUUGAGAUGGCCUUGCAAAGGGUAUGGUAAUAAGCUGACGGACAUGGUCCUAACCACGCAGCCAAGUCCUAAGUCAACAGAUCUUCUGUUGAUAUGGAUGCAGUUCACAGACUAAAUGUCGGUCGGGGAAGAUGUAUUCUUCUCAUAAGAUAUAGUCGGACCUCUCCUUAAUGGGAGCUAGCGGAUGAAGUGAUGCAACACUGGAGCCGCUGGGAACUAAUUUGUAUGCGAAAGUAUAUUGAUUAGUUUUGGAGUACUCGUGGUCG
In short: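 Fitness was computed with DiMSum as the error-weighted combination of replicate fold changes, kanamycin versus none, each normalised to wild type. The library randomised all eight intron nucleotides of the P1ex region, with the intron placed in the knt kanamycin-resistance gene on pET-22b(+) in E. coli BL21(DE3). Six replicate transformations were grown overnight at 37°C or 30°C on LB agar with or without 25 μg/mL kanamycin, plus 100 μg/mL carbenicillin, 50 μM IPTG and 0.2% rhamnose. Pooled colonies were amplicon-sequenced on an Illumina HiSeq 2500.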

Sequence | self-splicing fitness (ln) (30 °C) | self-splicing fitness (ln) (37 °C)
GUCGAGCAAUAUUACGGUCA | -1.37 ± 0.26 | -0.499 ± 0.24
GUCGAGCAAUAUUACGUCAU | -1.8 ± 0.12 | -1.13 ± 0.1
GUCGAGCAAUAUUACGUCUC | -1.76 ± 0.42 | -0.346 ± 0.27
GUCGAGCAAUAUUACGUGAA | -1.6 ± 0.12 | -1.86 ± 0.17
GUCGAGCAAUAUUACGUUAU | -0.538 ± 0.12 | -2.13 ± 0.21
GUCGAGCAAUAUUACGUUCU | -1.32 ± 0.15 | 0.217 ± 0.13
GUCGAGCAAUAUUACGUUGC | -2.19 ± 0.2 | -2.25 ± 0.41
GUCUAGCAAUAUUACGAAGU | -1.23 ± 0.19 | -0.107 ± 0.14
GUCUAGCAAUAUUACGAAUC | -1.33 ± 0.19 | 1.43 ± 0.2
GUCUAGCAAUAUUACGACCG | -1.42 ± 0.4 | -2.17 ± 0.33
GUCUAGCAAUAUUACGAGCG | -2.05 ± 0.14 | -0.599 ± 0.16
GUCUAGCAAUAUUACGCAAA | -1.12 ± 0.13 | -0.541 ± 0.12
GUCUAGCAAUAUUACGCAAU | -0.524 ± 0.082 | -0.156 ± 0.082
GUCUAGCAAUAUUACGCACA | -0.72 ± 0.12 | -0.113 ± 0.14
GUCUAGCAAUAUUACGCACC | -1.81 ± 0.11 | -0.328 ± 0.14
GUCUAGCAAUAUUACGCAGA |  | -2.48 ± 0.31
GUCUAGCAAUAUUACGCCGC | -3.25 ± 0.38 | 
GUCUAGCAAUAUUACGCCUA | -0.955 ± 0.31 | -0.323 ± 0.27
GUCUAGCAAUAUUACGCGAA | -1.36 ± 0.23 | -0.134 ± 0.19
GUCUAGCAAUAUUACGCGAU | -1.94 ± 0.21 | -2.29 ± 0.23
GUCUAGCAAUAUUACGCGGU | -1.78 ± 0.26 | -1.04 ± 0.38
GUCUAGCAAUAUUACGCUCG | -0.688 ± 0.23 | -0.634 ± 0.27
GUCUAGCAAUAUUACGCUGU | -0.966 ± 0.09 | -0.224 ± 0.094
GUCUAGCAAUAUUACGGCCG |  | -1.78 ± 0.35
GUCUAGCAAUAUUACGGCGC | -0.167 ± 0.1 | 0.985 ± 0.12

Sequence | self-splicing fitness (ln) (30 °C) | self-splicing fitness (ln) (37 °C)
GUCUAGCAAUAUUACGGCUC | -0.737 ± 0.086 | 0.57 ± 0.12
GUCUAGCAAUAUUACGGUCG | -1.06 ± 0.089 | -0.996 ± 0.11
GUCUAGCAAUAUUACGGUGA | -2.81 ± 0.25 | -0.385 ± 0.21
GUCUAGCAAUAUUACGUCGC | -0.459 ± 0.2 | 0.215 ± 0.19
GUCUAGCAAUAUUACGUGCU | -3.08 ± 0.23 | -1.87 ± 0.39
GUCUAGCAAUAUUACGUUCC | -1.14 ± 0.16 | -0.649 ± 0.2
GUCUAGCAAUAUUACGUUUG | -2.11 ± 0.088 | -1.62 ± 0.11
GUGAAGCAAUAUUACGAACU | -2.15 ± 0.1 | -0.516 ± 0.095
GUGAAGCAAUAUUACGACCC | -1.04 ± 0.43 | 0.469 ± 0.33
GUGAAGCAAUAUUACGACCG | -1.63 ± 0.23 | 0.706 ± 0.28
GUGAAGCAAUAUUACGCCAA | -0.702 ± 0.13 | -1.88 ± 0.16
GUGAAGCAAUAUUACGCCGU | -1.23 ± 0.13 | -0.0879 ± 0.21
GUGAAGCAAUAUUACGCGAC | -0.927 ± 0.21 | -0.922 ± 0.26
GUGAAGCAAUAUUACGGACG | 0.234 ± 0.081 | 0.144 ± 0.092
GUGAAGCAAUAUUACGGACU | -0.0214 ± 0.15 | -0.194 ± 0.19
GUGAAGCAAUAUUACGGGAA | -2.11 ± 0.12 | -0.793 ± 0.11
GUGAAGCAAUAUUACGGGCA | -0.763 ± 0.064 | -0.106 ± 0.083
GUGAAGCAAUAUUACGGUGG | -1.97 ± 0.098 | -1.78 ± 0.16
GUGAAGCAAUAUUACGGUGU | -1.8 ± 0.063 | -0.777 ± 0.082
GUGAAGCAAUAUUACGGUUU | -2.86 ± 0.084 | -0.906 ± 0.11
GUGAAGCAAUAUUACGUACC | -1.07 ± 0.2 | 
GUGAAGCAAUAUUACGUAGC | -3.31 ± 0.15 | -1.84 ± 0.18
GUGAAGCAAUAUUACGUCGA | -0.469 ± 0.077 | 0.751 ± 0.12
GUGAAGCAAUAUUACGUCUC | -0.941 ± 0.11 | -0.553 ± 0.12
GUGAAGCAAUAUUACGUGUA | -1.11 ± 0.069 | -0.878 ± 0.087

Sequence | self-splicing fitness (ln) (30 °C) | self-splicing fitness (ln) (37 °C)
GUGAAGCAAUAUUACGUUCC | -1.67 ± 0.17 | -1.16 ± 0.2
GUGAAGCAAUAUUACGUUUC | -3.08 ± 0.17 | -2.53 ± 0.34
GUGCAGCAAUAUUACGAAGG | -2.59 ± 0.19 | -1.53 ± 0.23
GUGCAGCAAUAUUACGACGU | -0.779 ± 0.11 | 0.0794 ± 0.13
GUGCAGCAAUAUUACGAGCA | -3.43 ± 0.31 | -1.18 ± 0.15
GUGCAGCAAUAUUACGAUAC | -1.58 ± 0.2 | -0.0479 ± 0.17
GUGCAGCAAUAUUACGCAGU | -3.58 ± 0.27 | -2.4 ± 0.28
GUGCAGCAAUAUUACGCAUA | -1.7 ± 0.18 | -0.534 ± 0.14
GUGCAGCAAUAUUACGCUUA | -0.938 ± 0.092 | 0.781 ± 0.15
GUGCAGCAAUAUUACGCUUG | -3.09 ± 0.21 | -2.02 ± 0.27
GUGCAGCAAUAUUACGGACA | -1.58 ± 0.14 | -0.853 ± 0.16
GUGCAGCAAUAUUACGGAGA |  | -1.86 ± 0.38
GUGCAGCAAUAUUACGGAGC | -1.85 ± 0.2 | -1.97 ± 0.19
GUGCAGCAAUAUUACGGCAA | 0.24 ± 0.12 | 0.291 ± 0.15
GUGCAGCAAUAUUACGGGGA | -4.16 ± 0.3 | -2.8 ± 0.23
GUGCAGCAAUAUUACGGUAU | -2.16 ± 0.12 | -1.53 ± 0.15
GUGCAGCAAUAUUACGGUCU | -0.887 ± 0.081 | 0.217 ± 0.093
GUGCAGCAAUAUUACGGUUC | -0.353 ± 0.075 | -0.684 ± 0.11
GUGCAGCAAUAUUACGUAGC | -1.44 ± 0.17 | -0.976 ± 0.16
GUGCAGCAAUAUUACGUAGU | -1.37 ± 0.083 | -0.784 ± 0.12
GUGCAGCAAUAUUACGUCUC | -0.469 ± 0.084 | 0.48 ± 0.11
GUGCAGCAAUAUUACGUGAC | -1.86 ± 0.14 | -1.33 ± 0.14
GUGCAGCAAUAUUACGUGCU | -3.49 ± 0.32 | -2.35 ± 0.35
GUGCAGCAAUAUUACGUGGC | -3.55 ± 0.27 | -1.8 ± 0.15
GUGCAGCAAUAUUACGUUGU | -3.71 ± 0.17 | -2.56 ± 0.17

Sequence | self-splicing fitness (ln) (30 °C) | self-splicing fitness (ln) (37 °C)
GUGCAGCAAUAUUACGUUUA | -0.737 ± 0.11 | -0.75 ± 0.12
GUGGAGCAAUAUUACGAACA | -2.19 ± 0.46 | -0.866 ± 0.45
GUGGAGCAAUAUUACGAACG | -2.43 ± 0.43 | -1.53 ± 0.41
GUGGAGCAAUAUUACGAAUC | -3.4 ± 0.24 | -1.43 ± 0.26
GUGGAGCAAUAUUACGACUU | -2.79 ± 0.34 | -0.283 ± 0.24
GUGGAGCAAUAUUACGAGCA | -2.49 ± 0.34 | -1.93 ± 0.39
GUGGAGCAAUAUUACGAGUG |  | -1.74 ± 0.36
GUGGAGCAAUAUUACGAUCC | -2.49 ± 0.2 | -1.13 ± 0.28
GUGGAGCAAUAUUACGCCCU | -1.79 ± 0.32 | -1.87 ± 0.26
GUGGAGCAAUAUUACGCCUU | -2.3 ± 0.31 | -1.09 ± 0.22
GUGGAGCAAUAUUACGCGAA | -3 ± 0.39 | -1.09 ± 0.27
GUGGAGCAAUAUUACGCUAA | -2.72 ± 0.25 | -1.6 ± 0.19
GUGGAGCAAUAUUACGCUAG | -3.24 ± 0.19 | -2.36 ± 0.2
GUGGAGCAAUAUUACGCUCA | -1.19 ± 0.26 | -1.1 ± 0.26
GUGGAGCAAUAUUACGGAGC | -2.43 ± 0.2 | -0.177 ± 0.25
GUGGAGCAAUAUUACGGCAC | -1.39 ± 0.19 | -0.386 ± 0.31
GUGGAGCAAUAUUACGGUGA |  | -1.81 ± 0.49
GUGGAGCAAUAUUACGUAAG | -3.04 ± 0.26 | -1.21 ± 0.47
GUGGAGCAAUAUUACGUAGC | 0.305 ± 0.33 | 
GUGGAGCAAUAUUACGUAGU | -2.93 ± 0.24 | -0.993 ± 0.27
GUGGAGCAAUAUUACGUCAC | -3.5 ± 0.39 | -1.99 ± 0.26
GUGGAGCAAUAUUACGUCCG | -3.12 ± 0.33 | -1.01 ± 0.33
